{"source": "the RNAGym collection of RNA variant scans (doi:10.7554/elife.90254)", "parents": {"B1": {"name": "LINE1-full (parent)", "chain": "UACGUAGGUGGUUUUCCCCUGAUAGUGCUAAGGGGGCCUGGAAGUUUGGACUGGGCAGAGCUCAACACAGCGUGGCAAAGUGGCUGUGGCUAGACUGCCUCUCUGGAUUCCUCGUCACUCAGCAGGGCAUCUCUGAGAGAAAUGCC"}}, "data": [{"variants_of": "B1", "assay": "self-cleavage, relative activity (ratio to wild type); higher = more cleavage; in vitro, sequencing; the parent is a self-cleaving ribozyme", "values": [{"variant": "G33A U132C", "self-cleavage": 1.47}, {"variant": "A24U G40A", "self-cleavage": 0.71}, {"variant": "U20C G89A", "self-cleavage": 0.09}, {"variant": "G8A U12C", "self-cleavage": 1.17}, {"variant": "U91C G122A", "self-cleavage": 0.29}, {"variant": "U29C U96A", "self-cleavage": 0.15}, {"variant": "U12G U91C", "self-cleavage": 1.02}, {"variant": "U47C A140G", "self-cleavage": 1.52}, {"variant": "U47A U102A", "self-cleavage": 1.35}, {"variant": "U14A G34C", "self-cleavage": 1.98}, {"variant": "G75A U109A", "self-cleavage": 0.99}, {"variant": "A77G U102A", "self-cleavage": 2.63}, {"variant": "A22G G54A", "self-cleavage": 0.75}, {"variant": "U45C U62A", "self-cleavage": 0.04}, {"variant": "U91C C118U", "self-cleavage": 0.67}, {"variant": "U81A A92G", "self-cleavage": 0.15}, {"variant": "G105A A117U", "self-cleavage": 1.74}, {"variant": "U9C G122C", "self-cleavage": 0}, {"variant": "A121U A124G", "self-cleavage": 1.31}, {"variant": "A42G C63U", "self-cleavage": 0.4}, {"variant": "U112C C116G", "self-cleavage": 2.13}, {"variant": "U1A A64G", "self-cleavage": 0.64}, {"variant": "U45A U62A", "self-cleavage": 0}, {"variant": "U52C A57U", "self-cleavage": 0.08}, {"variant": "U9C U73A", "self-cleavage": 1.58}, {"variant": "U15A U134A", "self-cleavage": 0.87}, {"variant": "U112C G137U", "self-cleavage": 0.88}, {"variant": "G44A A138G", "self-cleavage": 1.55}, {"variant": "U5C G33A", "self-cleavage": 1.45}, {"variant": "A64U U115C", "self-cleavage": 0.63}, {"variant": "G82A A92G", "self-cleavage": 0.04}, {"variant": "A78U U104C", "self-cleavage": 0.87}, {"variant": "U14A U23A", "self-cleavage": 0.72}, {"variant": "U13C C113A", "self-cleavage": 0.44}, {"variant": "U13A U52C", "self-cleavage": 1.78}, {"variant": "G74A U85A", "self-cleavage": 0.05}, {"variant": "C68U U130C", "self-cleavage": 0.19}, {"variant": "A92G C133U", "self-cleavage": 0.02}, {"variant": "U47A A78U", "self-cleavage": 2.04}, {"variant": "G34A U52C", "self-cleavage": 1.1}, {"variant": "G32A U87A", "self-cleavage": 0.03}, {"variant": "A140G A141G", "self-cleavage": 0.53}, {"variant": "G60A U85C", "self-cleavage": 0.01}, {"variant": "U52A U134C", "self-cleavage": 2.25}, {"variant": "U115C C146G", "self-cleavage": 1.93}, {"variant": "A6G U112C", "self-cleavage": 0.96}, {"variant": "U46A A136U", "self-cleavage": 1.18}, {"variant": "C28U C63A", "self-cleavage": 0.02}, {"variant": "U73A A78G", "self-cleavage": 0.34}, {"variant": "A24U A138G", "self-cleavage": 0.94}, {"variant": "U52C A117C", "self-cleavage": 0.42}, {"variant": "A65G A117U", "self-cleavage": 0.04}, {"variant": "A57G G89A", "self-cleavage": 0.04}, {"variant": "U26A U52C", "self-cleavage": 0.8}, {"variant": "A78G U108A", "self-cleavage": 1.41}, {"variant": "G49A U85C", "self-cleavage": 0.1}, {"variant": "A30G A129U", "self-cleavage": 0.89}, {"variant": "U96A U109C", "self-cleavage": 0.1}, {"variant": "G34A U85A", "self-cleavage": 0.1}, {"variant": "U112A A136U", "self-cleavage": 1.67}, {"variant": "U23C G35A", "self-cleavage": 1.4}, {"variant": "G34A C120U", "self-cleavage": 1.64}, {"variant": "G53U U91C", "self-cleavage": 0.54}, {"variant": "A79U U91C", "self-cleavage": 1.04}, {"variant": "A30G U134C", "self-cleavage": 1.13}, {"variant": "A2G A77U", "self-cleavage": 0.79}, {"variant": "U13C U112A", "self-cleavage": 1.05}, {"variant": "G86A C118U", "self-cleavage": 0.09}, {"variant": "U14C U119C", "self-cleavage": 1.29}, {"variant": "U109C A136G", "self-cleavage": 1.75}, {"variant": "A2G C19A", "self-cleavage": 1.24}, {"variant": "A2G A117G", "self-cleavage": 0.3}, {"variant": "C37G", "self-cleavage": 1.13}, {"variant": "C19U U130C", "self-cleavage": 1.08}, {"variant": "U81C A138C", "self-cleavage": 2.23}, {"variant": "U12C A31G", "self-cleavage": 1.24}, {"variant": "U5C A140G", "self-cleavage": 1.12}, {"variant": "A129C G135A", "self-cleavage": 2.11}, {"variant": "U47A A138G", "self-cleavage": 1.39}, {"variant": "G10A A31G", "self-cleavage": 0.45}, {"variant": "U47G", "self-cleavage": 1.14}, {"variant": "A79U U112C", "self-cleavage": 1.95}, {"variant": "A42G G89A", "self-cleavage": 0.03}, {"variant": "U81A U104A", "self-cleavage": 1.81}, {"variant": "U96A A129G", "self-cleavage": 0.07}, {"variant": "A79G A121U", "self-cleavage": 1.13}, {"variant": "G33U A79G", "self-cleavage": 1.51}, {"variant": "U47C U96A", "self-cleavage": 0.1}, {"variant": "A59U A138C", "self-cleavage": 1.23}, {"variant": "U14C A94U", "self-cleavage": 0.29}, {"variant": "U15C A31U", "self-cleavage": 0.95}, {"variant": "A22U U87A", "self-cleavage": 0.1}, {"variant": "U109C G122A", "self-cleavage": 1.81}, {"variant": "U85A U102C", "self-cleavage": 0.13}, {"variant": "A24U A142G", "self-cleavage": 1.29}, {"variant": "A78G U81G", "self-cleavage": 0.34}, {"variant": "A50U U73A", "self-cleavage": 0.89}, {"variant": "U9C U23A", "self-cleavage": 1.22}, {"variant": "U87C A138G", "self-cleavage": 0.28}, {"variant": "G40A U104A", "self-cleavage": 0.75}, {"variant": "U102C U130C", "self-cleavage": 1.24}, {"variant": "U96A C111U", "self-cleavage": 0.07}, {"variant": "A50G U109A", "self-cleavage": 0.84}, {"variant": "U81C U87A", "self-cleavage": 0.1}, {"variant": "U87C U102A", "self-cleavage": 0.12}, {"variant": "U87G A124C", "self-cleavage": 0.32}, {"variant": "G89A U102C", "self-cleavage": 0.05}, {"variant": "U12C U134C", "self-cleavage": 1.3}, {"variant": "U115G A129U", "self-cleavage": 1.34}, {"variant": "U96A U143G", "self-cleavage": 0.1}, {"variant": "A6U U96C", "self-cleavage": 0.09}, {"variant": "G21A A65U", "self-cleavage": 0.21}, {"variant": "G10A A30G", "self-cleavage": 1.19}, {"variant": "G44U U47C", "self-cleavage": 1.45}, {"variant": "G4U A138U", "self-cleavage": 1.19}, {"variant": "G127C", "self-cleavage": 1.45}, {"variant": "A57U U81A", "self-cleavage": 0.05}, {"variant": "U39A A142C", "self-cleavage": 1.59}, {"variant": "U13C G34U", "self-cleavage": 1.99}, {"variant": "U62A U115C", "self-cleavage": 0.04}, {"variant": "U5C G10A", "self-cleavage": 0.51}, {"variant": "U15A U81A", "self-cleavage": 1.56}, {"variant": "U20A U115C", "self-cleavage": 1.66}, {"variant": "A22G U102C", "self-cleavage": 1.04}, {"variant": "A64C U96C", "self-cleavage": 0.18}, {"variant": "C19U", "self-cleavage": 1.21}, {"variant": "U62C G93U", "self-cleavage": 0.03}, {"variant": "U85A A141U", "self-cleavage": 0.07}, {"variant": "U14C U29G", "self-cleavage": 0.26}, {"variant": "U15C C103U", "self-cleavage": 1.53}, {"variant": "A22U G34A", "self-cleavage": 0.82}, {"variant": "U26A G93A", "self-cleavage": 0}, {"variant": "A77U U96G", "self-cleavage": 0.27}, {"variant": "C98G", "self-cleavage": 0.13}, {"variant": "G55C A129U", "self-cleavage": 0.09}, {"variant": "U14A A50U", "self-cleavage": 0.18}, {"variant": "U46A G89C", "self-cleavage": 0.03}, {"variant": "A124C U143A", "self-cleavage": 1.24}, {"variant": "A124C U143C", "self-cleavage": 2.43}, {"variant": "G75A U102A", "self-cleavage": 1.36}, {"variant": "A42U G82A", "self-cleavage": 1.38}, {"variant": "U9C U100C", "self-cleavage": 1.51}, {"variant": "U87C C110A", "self-cleavage": 0.06}, {"variant": "A77G A136G", "self-cleavage": 2.64}, {"variant": "A67G A138U", "self-cleavage": 0.56}, {"variant": "U62G A77G", "self-cleavage": 0.07}, {"variant": "A59C C131A", "self-cleavage": 1.15}, {"variant": "G75C", "self-cleavage": 0.6}, {"variant": "U45C G60C", "self-cleavage": 0.03}, {"variant": "A22G U85A", "self-cleavage": 0.12}, {"variant": "A30G A78U", "self-cleavage": 1.44}, {"variant": "U26A G70A", "self-cleavage": 0.11}, {"variant": "U13G U119A", "self-cleavage": 1.8}, {"variant": "C37U A140G", "self-cleavage": 0.26}, {"variant": "U5A U39G", "self-cleavage": 0.22}, {"variant": "U91A G126A", "self-cleavage": 0.43}, {"variant": "U13C A67U", "self-cleavage": 0.16}, {"variant": "A79C A92G", "self-cleavage": 0.24}, {"variant": "U62C C113G", "self-cleavage": 0.07}, {"variant": "A79G U132G", "self-cleavage": 0.63}, {"variant": "A30G U81C", "self-cleavage": 1.33}, {"variant": "U14C U108A", "self-cleavage": 0.98}, {"variant": "U9C G60C", "self-cleavage": 0.07}, {"variant": "A92G U100A", "self-cleavage": 0.13}, {"variant": "C98G U102C", "self-cleavage": 0.14}, {"variant": "A69U U108C", "self-cleavage": 0.06}, {"variant": "A57G A64G", "self-cleavage": 0.3}]}]}
